Data on two molecules can be found in US20230174642A1, “AFFINITY-MATURATED ANTI-ASIC1a ANTIBODIES” (SHANGHAITECH UNIVERSITY, priority 2019, published 2023).

Where a chain is given by its changes, count along the chain named.

Experiment [1] has as its target T1, hASIC1a-mCherry fusion on a stable cell line (human, UniProt P78348 1-528).
T1 sequence (looked up): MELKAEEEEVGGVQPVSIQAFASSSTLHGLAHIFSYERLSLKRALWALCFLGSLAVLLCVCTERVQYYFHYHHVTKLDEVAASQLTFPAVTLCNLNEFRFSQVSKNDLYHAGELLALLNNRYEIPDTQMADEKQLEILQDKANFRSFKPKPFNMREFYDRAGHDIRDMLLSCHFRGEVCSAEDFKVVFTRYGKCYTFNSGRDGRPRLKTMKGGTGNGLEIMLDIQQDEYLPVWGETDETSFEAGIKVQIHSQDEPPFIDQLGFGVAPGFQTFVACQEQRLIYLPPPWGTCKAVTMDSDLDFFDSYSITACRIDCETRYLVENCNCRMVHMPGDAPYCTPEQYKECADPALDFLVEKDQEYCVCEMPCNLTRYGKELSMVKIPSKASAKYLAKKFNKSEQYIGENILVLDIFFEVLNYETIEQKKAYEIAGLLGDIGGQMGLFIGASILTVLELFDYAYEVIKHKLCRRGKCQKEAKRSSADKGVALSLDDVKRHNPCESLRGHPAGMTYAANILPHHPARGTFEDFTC
The experiment can be described thus: cell-based or functional assay.

Experiment [2] deals with T2, recombinant extracellular domain of hASIC1a (hASIC1a-ECD) (human, UniProt P78348 67-427, limits assumed).
T2 construct: extracellular domain; ASIC1a is one splice isoform of it; also called trimeric ectodomain of hASIC1a
T2 sequence (looked up): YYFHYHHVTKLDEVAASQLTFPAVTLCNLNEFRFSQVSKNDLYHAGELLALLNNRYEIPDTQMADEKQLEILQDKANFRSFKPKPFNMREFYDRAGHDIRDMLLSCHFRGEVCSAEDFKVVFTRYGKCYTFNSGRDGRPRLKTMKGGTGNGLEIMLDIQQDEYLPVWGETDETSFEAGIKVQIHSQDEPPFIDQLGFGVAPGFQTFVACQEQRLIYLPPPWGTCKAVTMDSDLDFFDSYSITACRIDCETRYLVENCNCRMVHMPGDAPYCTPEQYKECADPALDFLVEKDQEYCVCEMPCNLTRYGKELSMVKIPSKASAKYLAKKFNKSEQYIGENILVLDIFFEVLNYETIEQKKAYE
The experiment can be described thus: SPR, Biacore T200, hASIC1a-ECD immobilized, IgG1 as analyte. The procedure: Binding affinities of four affinity-matured antibodies in IgG1 format (ASC06-01-IgG1 through ASC06-04-IgG1) to the recombinant extracellular domain of hASIC1a(hASIC1a-ECD) were measured using the Biacore T200™ (GE Healthcare). The ASC06-IgG1 antibody was used as a positive control. All manipulations were followed by the user guide of manufacturer. Briefly, was hASIC1a was immobilized, and serial dilutions of the indicated antibodies were added as analytes. The analysis of the results were processed in BIA Evaluation Software™.
A general note: Surface plasmon resonance follows binding to a sensor surface in real time, without labels.

B1: ASC06-02-IgG1 (antibody, V domains shown)
VH: QVQLQQSGGGLVQPGGSLRLSCAASGFTFSSYAMSWVRQAPGKGLEWVSAISGSGGSTYYADSVKGRFTISRDNSKNTLYLQMNSLRAEDTAVYYCAKDSFFGRAKGSWGQGTLVTVSS
VL: QSALTQPASVSGSPGQSITISCTGTSSDVGAYNYVSWYQQQPGKAPKLMIYGVSNRPSGVSNRFSGSKSGNAASLTISGLQAEDEADYYCSSYTSSSTYVFGTGTKLTVLG
notes: Full length IgG1
The term Kd denotes the concentration at which binding is half-saturated. For orientation: koff means the rate constant with which the complex falls apart. What is called kon is the rate constant with which the complex forms. For the molecule B1, the “IC50 for the inhibition of acid induced ASIC1a-mediated calcium influx, FLIPR-based assay” value in experiment [1] is 1.97 nM. In experiment [2], the Kd is 0.0125 nM, the koff is 0.000168 s⁻¹ and the kon was 1.3e+07 M⁻¹ s⁻¹.

B2: ASC06-IgG1 (antibody, V domains shown)
VH: B1 VH with F102Y, R104Y, A105S, S108D
VL: B1 VL
notes: Tested as full length IgG1; also called WT antibody ASC06-IgG1; parental ASC06-IgG1 antibody
With B2, in experiment [1], the “IC50 for the inhibition of acid induced ASIC1a-mediated calcium influx, FLIPR-based assay” value was 2.11 nM. In addition, in experiment [2], the dissociation constant Kd was 0.28 nM, the koff stood at 0.0013 s⁻¹ and the on-rate constant (kon) amounted to 4.7e+06 M⁻¹ s⁻¹.
